Results: US20180195056

Columns and labels:
[1] = system: His14-xlGATE16-MBP
[2] = system: His14-xlLC3B-MBP

wheat (Triticum) Atg4 ortholog (trAtg4)
protease concentration for significant cleavage, against its cognate substrate trAtg8 and the yeast substrate [1]: the Xenopus xlGATE16 substrate required drastically (>100-fold) higher trAtg4 concentrations for significant cleavage
substrate cleavage in protease titration (100 µM substrate, 1 h, 25° C.) [2]: xlLC3B cleavage by trAtg4 was only barely detectable
